Experimental data published in article PMC10786891, “Massively parallel profiling of RNA-targeting CRISPR-Cas13d”.

T1: EsCas13d, nuclease-dead (Eubacterium siraeum, UniProt B0MS50, R295A;H300A;R849A;H854A)
T1 sequence: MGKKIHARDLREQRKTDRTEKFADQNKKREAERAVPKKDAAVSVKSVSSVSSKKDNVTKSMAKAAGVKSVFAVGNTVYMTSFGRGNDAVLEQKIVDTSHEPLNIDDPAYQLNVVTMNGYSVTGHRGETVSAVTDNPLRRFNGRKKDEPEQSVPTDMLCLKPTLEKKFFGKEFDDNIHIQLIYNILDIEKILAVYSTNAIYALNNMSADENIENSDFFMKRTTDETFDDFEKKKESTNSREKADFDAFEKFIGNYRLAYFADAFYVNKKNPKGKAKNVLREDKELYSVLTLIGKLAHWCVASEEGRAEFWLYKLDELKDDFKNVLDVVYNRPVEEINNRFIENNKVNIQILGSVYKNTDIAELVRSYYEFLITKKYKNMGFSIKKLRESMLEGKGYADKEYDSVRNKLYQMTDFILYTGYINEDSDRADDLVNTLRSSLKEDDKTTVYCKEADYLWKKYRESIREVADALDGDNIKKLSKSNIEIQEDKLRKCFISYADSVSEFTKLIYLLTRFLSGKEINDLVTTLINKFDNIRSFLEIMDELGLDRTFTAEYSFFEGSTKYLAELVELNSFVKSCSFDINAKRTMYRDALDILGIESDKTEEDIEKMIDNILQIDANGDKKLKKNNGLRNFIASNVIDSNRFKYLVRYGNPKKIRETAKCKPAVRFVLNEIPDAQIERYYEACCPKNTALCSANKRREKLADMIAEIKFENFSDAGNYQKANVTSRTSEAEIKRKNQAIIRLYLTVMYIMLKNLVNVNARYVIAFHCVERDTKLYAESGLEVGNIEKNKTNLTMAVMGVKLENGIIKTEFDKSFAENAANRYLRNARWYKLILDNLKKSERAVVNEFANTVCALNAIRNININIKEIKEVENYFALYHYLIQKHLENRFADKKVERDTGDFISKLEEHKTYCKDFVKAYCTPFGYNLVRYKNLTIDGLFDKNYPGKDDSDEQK


Target: T1, EsCas13d, nuclease-dead
Test: crRNA (strand 1, pre-loaded); Mg2+; 40 mM Tris-HCl pH 7.5, 150 mM NaCl, 6 mM MgCl2, 1 mM DTT, 0.1% Tween-20, 0.2 mg/ml BSA; 25 C; 10 min per concentration, then washed
Settings: tags: His6-TwinStrep-SUMO cleaved; N-terminal SNAP kept (SNAP-Surface 488); label: 3' end held by stalled T7 RNA polymerase

| Binder | Kd [nM] |
| --- | --- |
| target 1 A1G,A16U (mixed) RNA 1: CACCCGUGCAAAAAUGCAGGGGUCUAAAACUGAGCGGAUAACCUCUCUAUGG RNA 2: GGGAAUGGAUCCACAUCUACGAAUUCGUACCAUAGUGAGGUUAUCCGCUCGCCGAGAUCGGAAGAGCACACGU | 45 ± 11 |
| target 1 MT 5'PFS CUA 3'PFS CAG (mixed) RNA 1: CACCCGUGCAAAAAUGCAGGGGUCUAAAACUGAGCGGAUAACCUCUCUAUGG RNA 2: GGGAAUGGAUCCACAUCUACGAAUUCCUACCAUAGAGAGGUUAUCCGCUCACAGAGAUCGGAAGAGCACACGU | ~9.5 |
| target 1 MT 5'PFS ACU 3'PFS UCU (mixed) RNA 1: CACCCGUGCAAAAAUGCAGGGGUCUAAAACUGAGCGGAUAACCUCUCUAUGG RNA 2: GGGAAUGGAUCCACAUCUACGAAUUCACUCCAUAGAGAGGUUAUCCGCUCAUCUAGAUCGGAAGAGCACACGU | ~52 |
| target 1 MT 5'PFS GAA 3'PFS UCA (mixed) RNA 1: CACCCGUGCAAAAAUGCAGGGGUCUAAAACUGAGCGGAUAACCUCUCUAUGG RNA 2: GGGAAUGGAUCCACAUCUACGAAUUCGAACCAUAGAGAGGUUAUCCGCUCAUCAAGAUCGGAAGAGCACACGU | 29 ± 8 |
| target 1 MT 5'PFS GUU 3'PFS ACG (mixed) RNA 1: CACCCGUGCAAAAAUGCAGGGGUCUAAAACUGAGCGGAUAACCUCUCUAUGG RNA 2: GGGAAUGGAUCCACAUCUACGAAUUCGUUCCAUAGAGAGGUUAUCCGCUCAACGAGAUCGGAAGAGCACACGU | 33 ± 6.5 |
| target 1 MT 5'PFS AAG 3'PFS ACA (mixed) RNA 1: CACCCGUGCAAAAAUGCAGGGGUCUAAAACUGAGCGGAUAACCUCUCUAUGG RNA 2: GGGAAUGGAUCCACAUCUACGAAUUCAAGCCAUAGAGAGGUUAUCCGCUCAACAAGAUCGGAAGAGCACACGU | 23.5 ± 10 |
| target 1 MT 5'PFS AUG 3'PFS UCC (mixed) RNA 1: CACCCGUGCAAAAAUGCAGGGGUCUAAAACUGAGCGGAUAACCUCUCUAUGG RNA 2: GGGAAUGGAUCCACAUCUACGAAUUCAUGCCAUAGAGAGGUUAUCCGCUCAUCCAGAUCGGAAGAGCACACGU | 20 ± 8.5 |
| target 1 insC 3' of 20,insC 3' of 15 (mixed) RNA 1: CACCCGUGCAAAAAUGCAGGGGUCUAAAACUGAGCGGAUAACCUCUCUAUGG RNA 2: GGGAAUGGAUCCACAUCUACGAAUUCGUACCACUAGAGCAGGUUAUCCGCUCACCGAGAUCGGAAGAGCACACGU | 10.1 ± 0.6 |
| target 1 MT 5'PFS GCG 3'PFS UCC (mixed) RNA 1: CACCCGUGCAAAAAUGCAGGGGUCUAAAACUGAGCGGAUAACCUCUCUAUGG RNA 2: GGGAAUGGAUCCACAUCUACGAAUUCGCGCCAUAGAGAGGUUAUCCGCUCAUCCAGAUCGGAAGAGCACACGU | 19 ± 4 |
| target 1 MT 5'PFS GUU 3'PFS UAG (mixed) RNA 1: CACCCGUGCAAAAAUGCAGGGGUCUAAAACUGAGCGGAUAACCUCUCUAUGG RNA 2: GGGAAUGGAUCCACAUCUACGAAUUCGUUCCAUAGAGAGGUUAUCCGCUCAUAGAGAUCGGAAGAGCACACGU | 17.4 ± 2.25 |
| target 1 MT 5'PFS GUU 3'PFS ACA (mixed) RNA 1: CACCCGUGCAAAAAUGCAGGGGUCUAAAACUGAGCGGAUAACCUCUCUAUGG RNA 2: GGGAAUGGAUCCACAUCUACGAAUUCGUUCCAUAGAGAGGUUAUCCGCUCAACAAGAUCGGAAGAGCACACGU | 26.5 ± 9.5 |
| target 1 MT 5'PFS CCG 3'PFS CGG (mixed) RNA 1: CACCCGUGCAAAAAUGCAGGGGUCUAAAACUGAGCGGAUAACCUCUCUAUGG RNA 2: GGGAAUGGAUCCACAUCUACGAAUUCCCGCCAUAGAGAGGUUAUCCGCUCACGGAGAUCGGAAGAGCACACGU | 19 ± 5.5 |
| target 1 MT 5'PFS GUU 3'PFS UAU (mixed) RNA 1: CACCCGUGCAAAAAUGCAGGGGUCUAAAACUGAGCGGAUAACCUCUCUAUGG RNA 2: GGGAAUGGAUCCACAUCUACGAAUUCGUUCCAUAGAGAGGUUAUCCGCUCAUAUAGAUCGGAAGAGCACACGU | 16.9 ± 2.4 |
| target 1 MT 5'PFS GAA 3'PFS UCC (mixed) RNA 1: CACCCGUGCAAAAAUGCAGGGGUCUAAAACUGAGCGGAUAACCUCUCUAUGG RNA 2: GGGAAUGGAUCCACAUCUACGAAUUCGAACCAUAGAGAGGUUAUCCGCUCAUCCAGAUCGGAAGAGCACACGU | 27 ± 7 |
| target 1 MT 5'PFS AAA 3'PFS AAC (mixed) RNA 1: CACCCGUGCAAAAAUGCAGGGGUCUAAAACUGAGCGGAUAACCUCUCUAUGG RNA 2: GGGAAUGGAUCCACAUCUACGAAUUCAAACCAUAGAGAGGUUAUCCGCUCAAACAGAUCGGAAGAGCACACGU | 30 ± 12 |
| target 1 MT 5'PFS GUU 3'PFS UAA (mixed) RNA 1: CACCCGUGCAAAAAUGCAGGGGUCUAAAACUGAGCGGAUAACCUCUCUAUGG RNA 2: GGGAAUGGAUCCACAUCUACGAAUUCGUUCCAUAGAGAGGUUAUCCGCUCAUAAAGAUCGGAAGAGCACACGU | 20.9 ± 3.75 |
| target 1 A1U,G12U (mixed) RNA 1: CACCCGUGCAAAAAUGCAGGGGUCUAAAACUGAGCGGAUAACCUCUCUAUGG RNA 2: GGGAAUGGAUCCACAUCUACGAAUUCGUACCAUAGAGAGUUUAUCCGCUCUCCGAGAUCGGAAGAGCACACGU | 14.1 ± 1.8 |
| target 1 MT 5'PFS AAG 3'PFS ACG (mixed) RNA 1: CACCCGUGCAAAAAUGCAGGGGUCUAAAACUGAGCGGAUAACCUCUCUAUGG RNA 2: GGGAAUGGAUCCACAUCUACGAAUUCAAGCCAUAGAGAGGUUAUCCGCUCAACGAGAUCGGAAGAGCACACGU | 15.5 ± 4 |
| target 1 MT 5'PFS AAA 3'PFS AAA (mixed) RNA 1: CACCCGUGCAAAAAUGCAGGGGUCUAAAACUGAGCGGAUAACCUCUCUAUGG RNA 2: GGGAAUGGAUCCACAUCUACGAAUUCAAACCAUAGAGAGGUUAUCCGCUCAAAAAGAUCGGAAGAGCACACGU | 33.5 ± 14.5 |
| target 1 MT 5'PFS GUU 3'PFS UAC (mixed) RNA 1: CACCCGUGCAAAAAUGCAGGGGUCUAAAACUGAGCGGAUAACCUCUCUAUGG RNA 2: GGGAAUGGAUCCACAUCUACGAAUUCGUUCCAUAGAGAGGUUAUCCGCUCAUACAGAUCGGAAGAGCACACGU | 14.3 ± 2.8 |
| target 1 MT 5'PFS AUG 3'PFS UCU (mixed) RNA 1: CACCCGUGCAAAAAUGCAGGGGUCUAAAACUGAGCGGAUAACCUCUCUAUGG RNA 2: GGGAAUGGAUCCACAUCUACGAAUUCAUGCCAUAGAGAGGUUAUCCGCUCAUCUAGAUCGGAAGAGCACACGU | 10.6 ± 1.75 |
| target 1 MT 5'PFS GCG 3'PFS UCA (mixed) RNA 1: CACCCGUGCAAAAAUGCAGGGGUCUAAAACUGAGCGGAUAACCUCUCUAUGG RNA 2: GGGAAUGGAUCCACAUCUACGAAUUCGCGCCAUAGAGAGGUUAUCCGCUCAUCAAGAUCGGAAGAGCACACGU | 17.7 ± 4.45 |
| target 1 MT 5'PFS AAG 3'PFS ACC (mixed) RNA 1: CACCCGUGCAAAAAUGCAGGGGUCUAAAACUGAGCGGAUAACCUCUCUAUGG RNA 2: GGGAAUGGAUCCACAUCUACGAAUUCAAGCCAUAGAGAGGUUAUCCGCUCAACCAGAUCGGAAGAGCACACGU | ~47.5 |
| target 1 MT 5'PFS GAA 3'PFS UCU (mixed) RNA 1: CACCCGUGCAAAAAUGCAGGGGUCUAAAACUGAGCGGAUAACCUCUCUAUGG RNA 2: GGGAAUGGAUCCACAUCUACGAAUUCGAACCAUAGAGAGGUUAUCCGCUCAUCUAGAUCGGAAGAGCACACGU | 25 ± 5 |
| target 1 MT 5'PFS AAG 3'PFS ACU (mixed) RNA 1: CACCCGUGCAAAAAUGCAGGGGUCUAAAACUGAGCGGAUAACCUCUCUAUGG RNA 2: GGGAAUGGAUCCACAUCUACGAAUUCAAGCCAUAGAGAGGUUAUCCGCUCAACUAGAUCGGAAGAGCACACGU | 16.5 ± 6 |
| target 1 MT 5'PFS GAA 3'PFS UCG (mixed) RNA 1: CACCCGUGCAAAAAUGCAGGGGUCUAAAACUGAGCGGAUAACCUCUCUAUGG RNA 2: GGGAAUGGAUCCACAUCUACGAAUUCGAACCAUAGAGAGGUUAUCCGCUCAUCGAGAUCGGAAGAGCACACGU | 39.5 ± 18 |
| target 1 MT 5'PFS GCG 3'PFS UCU (mixed) RNA 1: CACCCGUGCAAAAAUGCAGGGGUCUAAAACUGAGCGGAUAACCUCUCUAUGG RNA 2: GGGAAUGGAUCCACAUCUACGAAUUCGCGCCAUAGAGAGGUUAUCCGCUCAUCUAGAUCGGAAGAGCACACGU | 13 ± 2.45 |
| target 1 MT 5'PFS UCA 3'PFS CCU (mixed) RNA 1: CACCCGUGCAAAAAUGCAGGGGUCUAAAACUGAGCGGAUAACCUCUCUAUGG RNA 2: GGGAAUGGAUCCACAUCUACGAAUUCUCACCAUAGAGAGGUUAUCCGCUCACCUAGAUCGGAAGAGCACACGU | 27.5 ± 9.5 |
